Reference: patent US20260216095A1, “NANOSHEET-HYDROGEL COMPOSITES AND METHODS OF US” (Rutgers, The State University of New Jersey, priority 2023, published 2026)

Tested on: aggrecan (ACAN)
Experiment: Rat nucleotomy model, immunohistochemistry for aggrecan
Assay type: in vivo, Sprague-Dawley rats
Details: six weeks
Description: Animal Model Nucleotomy: In total, eight-weeks-old female Sprague-Dawley rats (220-240 g) were purchased from Orient Bio Inc., Korea, and were acclimatized for a week at a life/dark cycle of 12/12 h (temperature; 22±1° C. and relative humidity; 50%±1%) and free approach to food and water. The animal experiments were performed according to the direction approved by the Institutional Animal Care and Use Committee (IACUC) of CHA Bundang Medical Center (IACUC 200141). At the beginning of the surgery, the peritoneal site was sterilized with 70% alcohol. Afterward, rats were thoroughly anesthetized with a general anesthesia mixture of Zoletil® (50 mg/kg Virbac Laboratories, France) and Rompun® (10 mg/kg, Bayer, Korea) injected intraperitoneally. […]
Immunohistochemistry: After six weeks of implantation, rats were euthanized via excess carbon dioxide inhalation and coccygeal discs were collected, and immunohistochemical analysis was performed for aggrecan (disc matrix component), collagen type II (a component of disc NP matrix), CGRP (pain-marker), Iba1 (pan-macrophage), CD86 (M1-macrophage) and CD163(M2-macrophage). […] The sections were mounted and finally examined using a fluorescence microscope (Zeiss 880, Germany and Leica SP5, Germany). The percentage of the positive area and cell number relative to DAPI was calculated by using ImageJ Software.

B1: GDF-5 alone: growth differentiation factor 5 (Peprotech, Catalog No. 120-01), given as saline solution (protein, UniProt P43026 382-501, looked up)
Growth/differentiation factor …: APLATRQGKRPSKNLKARCSRKALHVNFKDMGWDDWIIAPLEYEAFHCEGLCEFPLRSHLEPTNHAVIQTLMNSMDPESTPPTCCVPTRLSPISILFIDSANNVVYKQYEDMVVESCGCR
  aggrecan expression (IHC): decreased aggrecan expression
